{"source": "paper doi:10.1101/2024.10.21.619555", "about": "(bioRxiv, 2024)", "binders": {"B1": {"name": "recombinant DR6 ECD (domain or fragment, UniProt O75509 42-349, looked up)", "chain": "QPEQKASNLIGTYRHVDRATGQVLTCDKCPAGTYVSEHCTNTSLRVCSSCPVGTFTRHENGIEKCHDCSQPCPWPMIEKLPCAALTDRECTCPPGMFQSNATCAPHTVCPVGWGVRKKGTETEDVRCKQCARGTFSDVPSSVMKCKAYTDCLSQNLVVIKPGTKETDNVCGTLPSFSSSTSPSPGTAIFPRPEHMETHEVPSSTYVPKGMNSTESNSSASVRPKVLSSIQEGTVPDNTSSARGKEDVNKTLPNLQVVNHQQGPHHRHILKLLPSMEATGGEKSSTPIKGPKRGHPRQNLHKHFDINEH"}, "B2": {"name": "DR6 ECD-Halo (domain or fragment, UniProt O75509 42-349, looked up)", "chain": "B1 chain", "modifications": "Alexa Fluor 660 label"}, "B3": {"name": "quantum dot-labeled DR6, wild type (receptor, UniProt O75509 42-655, looked up)", "chain": "QPEQKASNLIGTYRHVDRATGQVLTCDKCPAGTYVSEHCTNTSLRVCSSCPVGTFTRHENGIEKCHDCSQPCPWPMIEKLPCAALTDRECTCPPGMFQSNATCAPHTVCPVGWGVRKKGTETEDVRCKQCARGTFSDVPSSVMKCKAYTDCLSQNLVVIKPGTKETDNVCGTLPSFSSSTSPSPGTAIFPRPEHMETHEVPSSTYVPKGMNSTESNSSASVRPKVLSSIQEGTVPDNTSSARGKEDVNKTLPNLQVVNHQQGPHHRHILKLLPSMEATGGEKSSTPIKGPKRGHPRQNLHKHFDINEHLPWMIVLFLLLVLVVIVVCSIRKSSRTLKKGPRQDPSAIVEKAGLKKSMTPTQNREKWIYYCNGHGIDILKLVAAQVGSQWKDIYQFLCNASEREVAAFSNGYTADHERAYAALQHWTIRGPEASLAQLISALRQHRRNDVVEKIRGLMEDTTQLETDKLALPMSPSPLSPSPIPSPNAKLENSALLTVEPSPQDKNKGFFVDESEPLLRCDSTSSGSSALSRNGSFITKEKKDTVLRQVRLDPCDLQPIFDDMLHFLNPEELRVIEEIPQAEDKLDRLFEIIGVKSQEASQTLLDSVYSHLPDLL", "modifications": "quantum dot label"}, "B4": {"name": "SNAP-DR6 (receptor, UniProt O75509 42-655, looked up)", "chain": "B3 chain", "modifications": "SNAP-Surface Alexa Fluor 488 label"}}, "key": {"SEC": {"biological_target": "the molecule itself", "assay": "SEC"}, "recombinant RBP4": {"biological_target": "recombinant RBP4 (UniProt P02753 19-201)", "assay": "cross-linking"}, "[1]": {"biological_target": "the molecule itself", "assay": "single-molecule dual-color photobleaching"}, "single-receptor tracking": {"biological_target": "the molecule itself", "assay": "single-receptor tracking"}, "[2]": {"biological_target": "the molecule itself", "assay": "single-molecule photobleaching"}}}
{"binder": "B1", "values": [{"measurement": "binding result", "setting": "SEC", "result": "binds"}, {"measurement": "stoichiometry N", "setting": "recombinant RBP4", "result": 1}]}
{"binder": "B2", "values": [{"measurement": "stoichiometry N", "setting": "[1]", "result": 2}]}
{"binder": "B3", "values": [{"measurement": "fold lower turnover into the monomeric state than DR6 ΔECD", "setting": "single-receptor tracking", "result": 2.1, "unit": "fold"}, {"measurement": "stoichiometry N", "setting": "single-receptor tracking", "result": 2}]}
{"binder": "B4", "values": [{"measurement": "stoichiometry N", "setting": "[2]", "result": 2}]}
